Experimental data: patent publication US7521540B2, “CYR61 compositions and methods” (Munin Corporation, priority 1996, dated 2009)

B1: PDGF-BB: Platelet-Derived Growth Factor, BB isoform (protein, UniProt P01127 82-190, looked up)
Platelet-derived growth …: SLGSLTIAEPAMIAECKTRTEVFEISRRLIDRTNANFLVWPPCVEVQRCSGCCNNRNVQCRPTQVQLRPVQVRKIEIVRKKPIFKKATVTLEDHLACKCETVAAARPVT
modifications: BB homodimer
notes: Platelet-Derived Growth Factor, BB isoform
B2: human Cyr61: Human Cyr61, 381 amino acids, SEQ ID NO:4, expressed in the baculovirus system (protein, listed as Homo sapiens)
chain: MSSRIARALALVVTLLHLTRLALSTCPAACHCPLEAPKCAPGVGLVRDGCGCCKVCAKQLNEDCSKTQPCDHTKGLECNFGASSTALKGICRAQSEGRPCEYNSRIYQNGESFQPNCQHQCTCIDGAVGCIPLCPQELSLPNLGCPNPRLVKVTGQCCEEWVCDEDSIKDPMEDQDGLLGKELGFDASEVELTRNNELIAVGKGRSLKRLPVFGMEPRILYNPLQGQKCIVQTTSWSQCSKTCGTGISTRVTNDNPECRLVKETRICEVRPCGQPVYSSLKKGKKCSKTKKSPEPVRFTYAGCLSVKKYRPKYCGSCVDGRCCTPQLTRTVKMRFRCEDGETFSKNVMMIQSCKCNYNCPHANEAAFPFYRLFNDIHKFRD
B3: Cyr61 NT: Human Cyr61 fragment with domains I, II and III, lacking heparan binding domain IV (protein)
chain: TCPAACHCPLEAPKCAPGVGLVRDGCGCCKVCAKQLNEDCSKTQPCDHTKGLECNFGASSTALKGICRAQSEGRPCEYNSRIYQNGESFQPNCQHQCTCIDGAVGCIPLCPQELSLPNLGCPNPRLVKVTGQCCEEWVCDEDSIKDPMEDQDGLLGKELGFDASEVELTRNNELIAVGKGRSLKRLPVFGMEPRILYNPLQGQKCIVQTTSWSQCSKTCGTGISTRVTNDNPECRLVKETRICEVRPCGQPVYSSLK

Legend:
NIH 3T3 fibroblasts = experiment: Thymidine incorporation (mitogen potentiation), NIH 3T3; assay type: cell-based, mouse; conditions: bFGF 15 ng/ml or PDGF-BB 30 ng/ml
Description: More specifically, NIH 3T3 fibroblast cells were plated on 24-well plates at 3×10^4 cells/well and grown in DMEM with 10% fetal bovine serum (Intergen Co., Purchase, N.Y.) for 3-4 days and incubated with medium containing 0.2% FBS for the following 48 hours. The following compounds, at the parenthetically noted final concentrations, were then added to the plated cells in fresh DMEM containing 0.2% fbs and [^3H]-thymidine (1 μCi/ml final concentration; ICN Biomedicals, Inc., Costa Mesa, Calif.): bFGF (15 ng/ml), PDGF-BB (30 ng/ml), and murine Cyr61 (0.5-5 μg/ml). These compounds were added to individual plates according to the following pattern: 1) no supplementation; 2) murine Cyr61; 3) bFGF; 4) murine Cyr61 and bFGF; 5) PDGF-BB; and 6) murine Cyr61 and PDGF. After 18-20 hours of incubation, cells were washed with PBS and fixed with 10% trichloroacetic acid. DNA was dissolved in 0.1 N NaOH and thymidine incorporation was determined. […] Without any supplements, 3T3 cells incorporated approximately 1.8×10^4 cpm of [^3H]-thymidine, in the presence or absence of Cyr61. Cells exposed to bFGF alone incorporated about 1.2×10^5 cpm; cells contacting bFGF and murine Cyr61 incorporated 2×10^5 cpm. Cells receiving PDGF-BB incorporated about 1.2×10^5 cpm; and cells exposed to PDGF-BB and murine Cyr61 incorporated approximately 2.4×10^5 cpm.
DNA synthesis for HUVE cells and NIH 3T3 fibroblasts was measured by thymidine incorporation as described previously (Kireeva et al., [1996]) with minor modifications. HUVE cells were grown in 24-well plates to a subconfluent state, serum-starved for 24 hours and treated with F12K medium containing 10% fetal bovine serum (FBS), 1 μCi/ml [^3H]-thymidine and 10 ng/ml basic Fibroblast Growth Factor (bFGF) (Gibco-BRL, Inc.) with various concentrations of Cyr61 and Fisp12 as indicated. NIH 3T3 fibroblasts were grown to subconlfluence, serum-starved for 48 hours, and treated with Minimal Essential Medium (MEM) containing 0.5% FBS, 1 μCi/ml [^3H]-thymidine, bFGF and various concentrations of Cyr61 or Fisp12. Thymidine incorporation into the trichloroacetic acid-insoluble fraction was determined after 24 hour incubation. Logarithmically grown mink lung epithelial cells (Mv1lu, CCL64) were treated with various concentrations of TGF-β1 (Gibco-BRL) and 2 μg/ml of Cyr61 or Fisp12 for 18 hours; [^3H]-thymidine was then added to 1 μCi/ml for 2 hours. Thymidine incorporation was determnined as described above.

[1] = tested on: 1064SK human skin fibroblasts; experiment: Human skin fibroblast migration; assay type: cell-based; conditions: 1064SK cells
HUVE cells = experiment: HUVE cell adhesion to hCyr61-coated plates; assay type: cell-based, human; conditions: serum-free conditions
Description: Immunological plates (96-well ProBind assay plates, Falcon) were coated with 0.1-30 μg/ml hCyr61, fibronectin (Gibco BRL) or vitronectin (Gibco BRL) in phosphate-buffered saline (PBS) containing 0.1% protease-free BSA (Sigma) for 16 hrs at 4° C. The wells were blocked with 1% BSA in PBS for 1 hr at room temperature and washed with PBS. […] In some experiments, fbs was added to 5-10%. Also, in experiments involving vitronectin-coateci plates, endogenous vitronectin was removed from fbs by immunoaffinity chromatography using bovine polyclonal anti-vitronectin antibodies (Gibco). Norris et al., J. Cell Sci. 95:255-262 (1990). Cells were plated at 10^4 cells/well. After 2 hours, cells were fixed with 4% paraformaldehyde, stained with methylene blue and quantified as described. Oliver et al., J. Cell Sci. 92:513-518 (1989).
The ability of HUVE cells to adhere to hCyr61-coated plates in the presence of mock-immunodepleted fbs and serum immunodepleted with anti-bovine vitronectin antibodies were compared. […] The addition of vitronectin (30 μg/ml) to vitronectin-immunodepleted serum restored the ability of HUVE cells to adhere and spread on hCyr61-coated plates to the same level observed when whole serum was used in the cell attachment assay. […]
Additionally, HUVE cell attachment and spreading in the presence of an increasing quantity of vitronectin was examined. […]

[2] = Heparin binding assay (salt elution from heparin-Sepharose/agarose)
[3] = tested on: 1064SK primary human foreskin fibroblasts; experiment: Fibroblast adhesion assay (methylene blue, A620); assay type: cell-based; conditions: protein coated on wells
Description: The ability of Cyr61 to mediate cell adhesion in normal fibroblasts was investigated. Microtiter wells were coated with purified recombinant Cyr61 protein, and 1064SK primary human foreskin fibroblasts were allowed to adhere under serum-free conditions. […] 50 μl cell suspensions were plated on microtiter wells coated with varying concentrations (0.5-5.0 μg/ml) of Cyr61 protein. After incubation at 37° C. for 30 minutes, adherent cells were fixed and stained with methylene blue.
In another experiment, microtiter wells were coated with either BSA, Cyr61 (2 μg/ml), or vitronectin (VN; 0.5 μg/ml) and blocked with affinity-purified anti-Cyr61 antibodies for one hour at 37° C. before 1064SK cells were plated.
The effects of divalent cations in cell adhesion to Cyr61 was also investigated. […] Data are means from triplicate determinations. […] Inhibition by Ca^2+ is characteristic of adhesion through some members of the β1 family of integrins, including receptors that bind type I collagen, laminin, and vitronectin (integrins α2β1, α6β1, and αVβ1) in fibroblasts, as well as the lymphocyte-specific integrin αLβ2.
The effects of RGD peptides on Cyr61-mediated fibroblast binding was tested by plating cells in wells coated with Cyr61 (2 μg/ml). Type I collagen (2 μg/ml) or vitronectin (0.5 μg/ml), 2 mM GRGDSP or GRGESP peptide was then added.
Cells were also pre-incubated with 40 μg/ml monoclonal antibodies against the integrin α5 or the integrin αV subunits at room temperature for 30 minutes, then plated on wells coated with Cyr61 (2 μg/ml), vitronectin (0.5 μg/ml) or fibronectin (FN, 1 μg/ml). […] The data are means, representative of three experiments.
The 1064 SK cells were also analyzed using the monoclonal antibody JBIA, which binds the β1 integrin subunit. Cells were pre-incubated with the antibody (50 μg/ml) before plating on microtiter wells coated with Cyr61 (2 μg/ml), Type I collagen (2 μg/ml), or vitronectin (0.5 μg/ml). […] Data are means, representative of three experiments.
To identify the specific β1 integrin that mediates fibroblast adhesion to Cyr61, the inhibitory effects of function-blocking monoclonal antibodies were tested against various integrin α subunits. […] The data are means, representative of at least three experiments.

[4] = tested on: primary human foreskin fibroblasts; experiment: Cyr61-regulated gene expression (multi-gene blot, Northern); assay type: cell-based
Description: Purified, soluble, recombinant Cyr61 protein was added to cultures of primary human foreskin fibroblasts for 24 hours. From these cells, mRNA was isolated for preparation of probes to hybridize to a multi-gene blot (Clontech Atlas Human Array 1.2 cat no. 7850-1) containing about 650 genes. The levels of expression of these genes in Cyr61-treated cells were compared to that of control cells. […] These findings have been confirmed by Northern blot analysis showing increases or decreases of the mRNAs in question in Cyr61-treated cells. A time course of expression changes has been established. In particular, by 6 hours after its addition, Cyr61 has induced expression of VEGF-A mRNA and the induction is still evident at 12 and 24 hours post-addition. Also at 12 and 24 hours post-addition, Cyr61 has induced expression of VEGF-A polypeptide. With respect to VEGF-C, induction of mRNA is clearly evident 12 hours after addition of Cyr61 and the induction persists at least through 24 hours post-addition. Cyr61 is expected to induce the expression of VEGF-C polypeptide with similar kinetics.

Row | Molecule | [3H]-thymidine incorporation, growth factor alone (NIH 3T3 fibroblasts) | migration of human fibroblasts [1] | HUVE cell attachment and spreading (HUVE cells) | heparin binding [2] | support of 1064SK fibroblast adhesion [3] | migration of human fibroblasts ([1]; listed as human Cyr61 NT) | induction of VEGF, MMP1, MMP3 etc. [4]
1 | B1 | about 1.2×10^5 cpm | – | – | – | – | – | –
2 | B2 | – | induced migration of the human fibroblast cells | mediated cell attachment but not spreading | quantitatively bound to heparin-agarose | – | – | –
3 | B3 | – | did support fibroblast migration | – | – | did not support fibroblast adhesion | induced 1064SK cell migration | do not induce the expression of the above-referenced genes
